Target: the molecule itself
Assay: anti-Flag immunoprecipitation from metabolically labeled HeLa cells, SDS-PAGE and anti-Flag western blot
Experimental: HeLa cells were grown to 80% confluency in 100 mm tissue culture dishes and transfected as above. At 24 hours post-infection, cells were incubated in serum-free and methionine-free medium for 30 minutes, and metabolically labeled with ³⁵S-cysteine/³⁵S-methionine (300 μCi/plate, Amersham) for 2 hr. After labeling, cells were washed twice with PBS and lysed immediately in PBS containing 1% Digitonin and protease inhibitors (Roche, Indianapolis, Ind.). The cell lysate was precleared with protein A/G agarose beads overnight and incubated with 3 μg of antibody for one hour, followed by one hour with protein A/G beads. Immunoprecipated proteins were washed five times with 0.25% Digitonin in PBS. All samples were boiled in Laemmli buffer and analyzed by SDS-PAGE gel electrophoresis. Gels were fixed, dried and exposed to Kodak BioMax MR film. Western blotting was accomplished using the WesternBreeze Chemiluminescent Detection System (Invitrogen), following semi-dry transfer to PVDF membranes (Millipore, Bedford, Mass.).

B1: MARCH-I (enzyme, not shown: small tags and cut ends)
chain: MTSSHVCCNFLNMWKKSKISTMYYLNQDAKLSNLFLQASSPTTGTAPRSQSRLSVCPSTQDICRICHCEGDEESPLITPCRCTGTLRFVHQSCLHQWIKSSDTRCCELCKYDFIMETKLKPLRKWEKLQMTTSERRKIFCSVTFHVIAITCVVWSLYVLIDRTAEEIKQGNDNGVLEWPFWTKLVVVAIGFTGGLVFMYVQCKVYVQLWRRLKAYNRVIFVQNCPDTAKKLEKNFSCNVNTDIKDAVVVPVPQTGANSLPSAEGGPPEVVSV
notes: Whole open reading frame expressed by transfection in HeLa cells; Flag-tagged in the immunoprecipitation; also called MARCHI-Flag; FLJ20668
B1: binds.

From patent US20050079613A1 (OREGON HEALTH AND SCIENCE UNIVERSITY, published 2005)
